According to patent publication US20240067727A1 (OSE IMMUNOTHERAPEUTICS, published 2024):

Biological target: T1, recombinant hPD1 (Sino Biologicals, reference 10377-H08H) (human, UniProt Q15116 25-167)
T1 construct: also called Human recombinant PD-1; rPD1
Experiment: ELISA: human recombinant PD-1 immobilised, detection with anti-human Fc-peroxidase, TMB
Description: PD-1 binding ELISA assay. Human recombinant PD-1 (rPD1) protein was immobilized, and antibodies were added at different concentrations. Revelation was performed with an anti-human Fc antibody coupled to peroxidase. Colorimetry was determined at 450 nm using TMB substrate. The bifunctional molecules comprising an IL7 W142H N297A variant with 1 anti PD-1 arm ( ) was tested as control.

T1 sequence (Q15116 25-167 limits assumed): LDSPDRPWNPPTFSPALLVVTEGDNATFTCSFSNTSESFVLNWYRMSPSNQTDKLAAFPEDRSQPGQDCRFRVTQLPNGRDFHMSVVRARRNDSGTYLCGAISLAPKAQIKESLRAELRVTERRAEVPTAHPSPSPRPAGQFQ

| EC50 (read off the curve) [µg/mL] | Binder |
| --- | --- |
| ~0.05 | anti PD-1*1 IL7 W142H*1 N297A DHS (other, also called IL7 W142H N297A DHS) DKTHTCPPCPAPELLGGPSVFLFPPKPKDTLMISRTPEVTCVVVDVSHEDPEVKFNWYVDGVEVHNAKTKPREEQYASTYRVVSVLTVDHHDWLNGKEYKCKVSNKALPAPIEKTISKAKGQPREPQVYTLPPCRDELTKNQVSLWCLVKGFYPSDIAVEWESNGQPENNYKTTPPVLDSDGSFFLYSKLTVDKSRWQQGNVFSCSVMHEALHSHYTQKSLSLSPGK heavy: QIQLVQSGSELKKPGASVKVSCKASGYTFTHYAMNWVRQAPGQGLEWMGWINTNTGEPTYAQGFTGRFVFSLDTSVSTAYLQISSLKAEDTAVYYCAREREPGMDNWGQGTLVTVSSASTKGPSVFPLAPSSKSTSGGTAALGCLVKDYFPEPVTVSWNSGALTSGVHTFPAVLQSSGLYSLSSVVTVPSSSLGTQTYICNVNHKPSNTKVDKKVEPKSCDKTHTCPPCPAPELLGGPSVFLFPPKPKDTLMISRTPEVTCVVVDVSHEDPEVKFNWYVDGVEVHNAKTKPREEQYASTYRVVSVLTVDHHDWLNGKEYKCKVSNKALPAPIEKTISKAKGQPREPQVCTLPPSRDELTKNQVSLSCAVKGFYPSDIAVEWESNGQPENNYKTTPPVLDSDGSFFLVSKLTVDKSRWQQGNVFSCSVMHEALHSHYTQKSLSLSPGKGGGGSGGGGSGGGGSDCDIEGKDGKQYESVLMVSIDQLLDSMKEIGSNCLNNEFNFFKRHICDANKEGMFLFRAARKLRQFLKMNSTGDFDLHLLKVSEGTTILLNCTGQVKGRKPAALGEAQPTKSLEENKSLKEQKKLNDLCFLKRLLQEIKTCHNKILMGTKEH light: DVVMTQSPLSLPVTLGQPASISCRSSQSLVHANTNTYLEWYQQRPGQSPRLLIYKVSNRFSGVPDRFSGSGSGTDFTLKISRVEAEDVGVYYCFQGTHVPNTFGQGTKLEIKRTVAAPSVFIFPPSDEQLKSGTASVVCLLNNFYPREAKVQWKVDNALQSGNSQESVTEQDSKDSTYSLSSTLTLSKADYEKHKVYACEVTHQGLSSPVTKSFNRGEC |
| ~0.03 | anti PD-1*1 IL7 W142H*1 N297A LS (other, Fc mutant of anti PD-1*1 IL7W142H*1; also called IL7 W142H N297A LS) DKTHTCPPCPAPELLGGPSVFLFPPKPKDTLMISRTPEVTCVVVDVSHEDPEVKFNWYVDGVEVHNAKTKPREEQYASTYRVVSVLTVLHQDWLNGKEYKCKVSNKALPAPIEKTISKAKGQPREPQVYTLPPCRDELTKNQVSLWCLVKGFYPSDIAVEWESNGQPENNYKTTPPVLDSDGSFFLYSKLTVDKSRWQQGNVFSCSVLHEALHSHYTQKSLSLSPGK heavy: QIQLVQSGSELKKPGASVKVSCKASGYTFTHYAMNWVRQAPGQGLEWMGWINTNTGEPTYAQGFTGRFVFSLDTSVSTAYLQISSLKAEDTAVYYCAREREPGMDNWGQGTLVTVSSASTKGPSVFPLAPSSKSTSGGTAALGCLVKDYFPEPVTVSWNSGALTSGVHTFPAVLQSSGLYSLSSVVTVPSSSLGTQTYICNVNHKPSNTKVDKKVEPKSCDKTHTCPPCPAPELLGGPSVFLFPPKPKDTLMISRTPEVTCVVVDVSHEDPEVKFNWYVDGVEVHNAKTKPREEQYASTYRVVSVLTVLHQDWLNGKEYKCKVSNKALPAPIEKTISKAKGQPREPQVCTLPPSRDELTKNQVSLSCAVKGFYPSDIAVEWESNGQPENNYKTTPPVLDSDGSFFLVSKLTVDKSRWQQGNVFSCSVLHEALHSHYTQKSLSLSPGKGGGGSGGGGSGGGGSDCDIEGKDGKQYESVLMVSIDQLLDSMKEIGSNCLNNEFNFFKRHICDANKEGMFLFRAARKLRQFLKMNSTGDFDLHLLKVSEGTTILLNCTGQVKGRKPAALGEAQPTKSLEENKSLKEQKKLNDLCFLKRLLQEIKTCHNKILMGTKEH light: DVVMTQSPLSLPVTLGQPASISCRSSQSLVHANTNTYLEWYQQRPGQSPRLLIYKVSNRFSGVPDRFSGSGSGTDFTLKISRVEAEDVGVYYCFQGTHVPNTFGQGTKLEIKRTVAAPSVFIFPPSDEQLKSGTASVVCLLNNFYPREAKVQWKVDNALQSGNSQESVTEQDSKDSTYSLSSTLTLSKADYEKHKVYACEVTHQGLSSPVTKSFNRGEC |
